Molecular target: PLC-γ1 (UniProt Q62077)
Assay: IP of PLC-γ1, blot for EAT-2
Conditions: reference: wild type EGFP-EAT-2; sites Y120,Y127

binding against the reference: lost
Substance: EAT-2 (from UniProt O35324) Y120F + Y127F double mutant (FF)
